In article PMC6754870 (2019):

How the values were obtained:
VEGFR1 = target: T1, VEGFR1 (Rattus norvegicus, UniProt P53767); test: [125I]-VEGF-A saturation binding to isolated LSECs at 4°C, Scatchard
T1 chain: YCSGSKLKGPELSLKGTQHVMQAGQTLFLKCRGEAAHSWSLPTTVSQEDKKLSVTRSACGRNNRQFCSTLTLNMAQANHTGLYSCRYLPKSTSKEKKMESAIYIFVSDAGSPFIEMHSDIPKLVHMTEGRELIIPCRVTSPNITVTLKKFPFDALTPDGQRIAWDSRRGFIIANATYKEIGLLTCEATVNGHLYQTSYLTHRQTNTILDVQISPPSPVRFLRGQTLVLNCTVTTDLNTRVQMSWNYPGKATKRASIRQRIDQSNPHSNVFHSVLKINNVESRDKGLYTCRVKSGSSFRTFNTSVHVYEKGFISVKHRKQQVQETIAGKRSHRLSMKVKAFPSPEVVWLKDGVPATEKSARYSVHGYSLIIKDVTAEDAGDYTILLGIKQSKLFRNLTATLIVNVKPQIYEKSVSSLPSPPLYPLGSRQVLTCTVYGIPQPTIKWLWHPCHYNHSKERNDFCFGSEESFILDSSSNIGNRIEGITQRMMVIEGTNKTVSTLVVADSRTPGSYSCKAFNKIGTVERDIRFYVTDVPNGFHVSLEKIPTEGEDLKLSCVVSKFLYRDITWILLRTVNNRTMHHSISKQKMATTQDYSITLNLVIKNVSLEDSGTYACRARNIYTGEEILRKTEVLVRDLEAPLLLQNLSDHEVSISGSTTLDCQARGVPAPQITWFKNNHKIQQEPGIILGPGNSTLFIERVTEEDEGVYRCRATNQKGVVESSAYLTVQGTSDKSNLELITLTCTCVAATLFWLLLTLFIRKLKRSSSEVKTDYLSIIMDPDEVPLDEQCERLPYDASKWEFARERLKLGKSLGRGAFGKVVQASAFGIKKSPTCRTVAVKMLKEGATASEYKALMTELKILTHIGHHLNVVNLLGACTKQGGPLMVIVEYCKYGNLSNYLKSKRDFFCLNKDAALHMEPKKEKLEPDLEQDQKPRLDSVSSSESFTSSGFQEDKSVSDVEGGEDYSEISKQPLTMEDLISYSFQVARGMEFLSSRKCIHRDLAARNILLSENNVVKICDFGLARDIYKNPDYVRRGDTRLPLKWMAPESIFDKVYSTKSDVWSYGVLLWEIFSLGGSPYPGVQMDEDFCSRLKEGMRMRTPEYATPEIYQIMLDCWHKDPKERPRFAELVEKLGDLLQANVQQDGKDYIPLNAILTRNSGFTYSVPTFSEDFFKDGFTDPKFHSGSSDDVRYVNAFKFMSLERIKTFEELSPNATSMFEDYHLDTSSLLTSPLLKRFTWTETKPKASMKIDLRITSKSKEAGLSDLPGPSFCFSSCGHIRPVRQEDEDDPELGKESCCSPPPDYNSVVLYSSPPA

VEGFR2 = target: T2, VEGFR2 (Rattus norvegicus, UniProt O08775); test: as above
T2 chain: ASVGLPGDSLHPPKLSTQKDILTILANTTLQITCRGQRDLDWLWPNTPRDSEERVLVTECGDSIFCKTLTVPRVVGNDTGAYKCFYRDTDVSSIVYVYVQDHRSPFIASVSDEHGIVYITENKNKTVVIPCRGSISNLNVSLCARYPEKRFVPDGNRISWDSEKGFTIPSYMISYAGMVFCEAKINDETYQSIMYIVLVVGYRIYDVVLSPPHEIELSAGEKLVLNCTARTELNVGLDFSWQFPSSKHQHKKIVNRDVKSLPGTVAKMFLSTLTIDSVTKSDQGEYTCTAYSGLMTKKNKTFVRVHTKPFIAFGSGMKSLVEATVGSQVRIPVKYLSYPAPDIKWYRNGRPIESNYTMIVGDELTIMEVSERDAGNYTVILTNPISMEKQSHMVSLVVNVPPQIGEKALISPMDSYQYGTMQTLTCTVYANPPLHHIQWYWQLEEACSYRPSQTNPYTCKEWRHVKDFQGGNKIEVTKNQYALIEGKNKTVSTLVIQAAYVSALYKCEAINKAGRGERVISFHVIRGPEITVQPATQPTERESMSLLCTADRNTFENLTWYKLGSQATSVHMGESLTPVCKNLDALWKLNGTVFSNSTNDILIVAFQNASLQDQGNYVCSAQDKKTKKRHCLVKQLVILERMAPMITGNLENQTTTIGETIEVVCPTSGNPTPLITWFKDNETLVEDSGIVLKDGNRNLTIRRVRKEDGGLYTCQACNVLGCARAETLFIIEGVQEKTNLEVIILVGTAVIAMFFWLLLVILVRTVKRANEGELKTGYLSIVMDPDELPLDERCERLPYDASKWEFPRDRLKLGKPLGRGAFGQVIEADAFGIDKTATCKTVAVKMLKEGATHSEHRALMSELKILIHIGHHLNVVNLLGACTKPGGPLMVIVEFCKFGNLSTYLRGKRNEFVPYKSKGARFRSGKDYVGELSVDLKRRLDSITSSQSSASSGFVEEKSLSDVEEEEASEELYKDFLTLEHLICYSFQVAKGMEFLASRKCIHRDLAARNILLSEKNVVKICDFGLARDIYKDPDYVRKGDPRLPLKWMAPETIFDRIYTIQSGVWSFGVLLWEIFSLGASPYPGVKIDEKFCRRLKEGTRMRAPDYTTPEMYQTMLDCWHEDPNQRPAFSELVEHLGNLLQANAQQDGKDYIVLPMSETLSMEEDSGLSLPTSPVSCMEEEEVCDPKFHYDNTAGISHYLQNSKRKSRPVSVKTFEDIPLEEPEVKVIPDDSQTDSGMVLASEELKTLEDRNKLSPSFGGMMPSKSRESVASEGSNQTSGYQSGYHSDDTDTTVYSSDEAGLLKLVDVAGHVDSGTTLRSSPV

B1: VEGF-A165 (protein)
chain: MTDRQTDTAPSPSYHLLPGRRRTVDAAASRGQGPEPAPGGGVEGVGARGVALKLFVQLLGCSRFGGAVVRAGEAEPSGAARSASSGREEPQPEEGEEEEEKEEERGPQWRLGARKPGSWTGEAAVCADSAPAARAPQALARASGRGGRVARRGAEESGPPHSPSRRGSASRAGPGRASETMNFLLSWVHWSLALLLYLHHAKWSQAAPMAEGGGQNHHEVVKFMDVYQRSYCHPIETLVDIFQEYPDEIEYIFKPSCVPLMRCGGCCNDEGLECVPTEESNITMQIMRIKPHQGQHIGEMSFLQHNKCECRPKKDRARQEKKSVRGKGKGQKRKRKKSRYKSWSVPCGPCSERRKHLFVQDPQTCKCSCKNTDSRCKARQLELNERTCRCDKPRR
modifications: 125I-labeled VEGF-A
Kd (VEGFR1): 0.008 nM | Kd (VEGFR2): 0.21 nM
